# Reference: patent US20200392198A1 (UNIVERSITY OF COPENHAGEN, published 2020)
# Ends that are not written are not given here. * marks the point of attachment. Palmitoyl = CCCCCCCCCCCCCCCC(=O)*; Lauroyl = CCCCCCCCCCCC(=O)*
# T1: human GIP receptor (human, UniProt P48546 22-466)
# T1 sequence (looked up): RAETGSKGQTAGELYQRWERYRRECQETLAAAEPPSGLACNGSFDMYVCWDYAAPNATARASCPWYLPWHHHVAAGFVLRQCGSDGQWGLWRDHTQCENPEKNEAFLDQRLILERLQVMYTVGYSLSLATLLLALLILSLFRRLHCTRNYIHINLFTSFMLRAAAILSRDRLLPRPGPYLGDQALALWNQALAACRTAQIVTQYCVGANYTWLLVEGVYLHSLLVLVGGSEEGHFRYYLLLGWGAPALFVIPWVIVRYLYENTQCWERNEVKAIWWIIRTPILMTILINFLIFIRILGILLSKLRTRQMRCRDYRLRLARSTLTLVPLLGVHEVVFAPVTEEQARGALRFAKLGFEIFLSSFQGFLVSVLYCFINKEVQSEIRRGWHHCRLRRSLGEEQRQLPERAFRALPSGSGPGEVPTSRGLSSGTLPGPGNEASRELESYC
# T2: human GLP-2 receptor (human, UniProt O95838 1-553)
# T2 sequence (looked up): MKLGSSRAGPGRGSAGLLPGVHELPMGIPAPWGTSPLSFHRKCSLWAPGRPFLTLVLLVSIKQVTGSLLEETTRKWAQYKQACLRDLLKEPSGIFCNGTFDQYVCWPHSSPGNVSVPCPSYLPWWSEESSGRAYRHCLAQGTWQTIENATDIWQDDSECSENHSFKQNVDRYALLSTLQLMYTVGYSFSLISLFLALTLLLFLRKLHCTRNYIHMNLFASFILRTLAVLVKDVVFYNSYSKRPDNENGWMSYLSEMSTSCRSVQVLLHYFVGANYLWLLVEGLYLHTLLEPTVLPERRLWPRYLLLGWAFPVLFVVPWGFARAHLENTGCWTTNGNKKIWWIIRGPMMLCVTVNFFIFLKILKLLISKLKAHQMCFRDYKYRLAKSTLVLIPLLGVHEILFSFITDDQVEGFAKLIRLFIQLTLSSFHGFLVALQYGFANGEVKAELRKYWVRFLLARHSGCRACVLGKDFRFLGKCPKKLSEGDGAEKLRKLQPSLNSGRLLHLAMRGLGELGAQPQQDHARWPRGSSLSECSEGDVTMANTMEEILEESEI
# B1: GIP-GLP-2 co-agonist 29 (peptide)
# peptide: HADGTFISDYSTILDNLAARDFINWLIQTKITK
# modifications: not fully specified (residue 1, N-terminus); also: C16 acyl group on His 1 (attachment site not given here)
# Molecular target: T1, human GIP receptor
# Assay: cell-based or functional assay
EC50 (cAMP) [nM],"Emax (10 µM), % of native GIP [%]",fold (EC50 vs native GIP) [fold],logEC50 (cAMP),Binder
0.63,100,7.1,-9.2,HADGTFISDYSTILDNLAARDFINWLIQTK(Lauroyl)ITK [GIP-GLP-2 co-agonist 30]
0.1,100,1.1,-10,HADGTFISDYSTILDNLAARDFINWLIQTKGKKNDWKHNITQ [GIP-GLP-2 co-agonist 34]
1.82,115,20,-8.74,B1
0.32,100,3.6,-9.5,"HADGTFISDYSTILDNLAARDFINWLIQTKITK (C16 acyl group on Lys 33 (K(c16/33), 'with C16 pos 33')) [GIP-GLP-2 co-agonist 33]"
0.15,100,1.7,-9.81,"HADGTFISDYSTILDNLAARDFINWLIQTKITK (C12 acyl group on Lys 33 (K(C12/33), 'with C12 pos 33')) [GIP-GLP-2 co-agonist 32]"
0.48,99,5.4,-9.32,HADGTFISDYSTILDNLAARDFINWLIQTKGK(Lauroyl)K [GIP-GLP-2 co-agonist 35]
1.7,91,19,-8.77,HADGTFISDYSTILDNLAARDFINWLIQTK(Palmitoyl)ITK [GIP-GLP-2 co-agonist 31]
0.79,100,8.9,-9.1,HADGTFISDYSTILDNLAARDFINWLIQTKGK(Palmitoyl)K [GIP-GLP-2 co-agonist 36]

# Molecular target: T2, human GLP-2 receptor
# Assay: cell-based or functional assay
EC50 (cAMP) [nM],"Emax (10 µM), % of native GLP-2 [%]",fold (EC50 vs native GLP-2) [fold],logEC50 (cAMP),Binder
36,73,30,-7.44,HADGTFISDYSTILDNLAARDFINWLIQTK(Lauroyl)ITK [GIP-GLP-2 co-agonist 30]
1.2,94,0.96,-8.94,HADGTFISDYSTILDNLAARDFINWLIQTKGKKNDWKHNITQ [GIP-GLP-2 co-agonist 34]
17,82,14,-7.76,B1
13,82,11,-7.89,"HADGTFISDYSTILDNLAARDFINWLIQTKITK (C16 acyl group on Lys 33 (K(c16/33), 'with C16 pos 33')) [GIP-GLP-2 co-agonist 33]"
6.2,91,5.1,-8.21,"HADGTFISDYSTILDNLAARDFINWLIQTKITK (C12 acyl group on Lys 33 (K(C12/33), 'with C12 pos 33')) [GIP-GLP-2 co-agonist 32]"
2.3,68,1.9,-8.63,HADGTFISDYSTILDNLAARDFINWLIQTKGK(Lauroyl)K [GIP-GLP-2 co-agonist 35]
107,91,89,-6.97,HADGTFISDYSTILDNLAARDFINWLIQTK(Palmitoyl)ITK [GIP-GLP-2 co-agonist 31]
20,71,17,-7.7,HADGTFISDYSTILDNLAARDFINWLIQTKGK(Palmitoyl)K [GIP-GLP-2 co-agonist 36]
